# In paper PMC8741920:
# pKd: −log10 of the molar value.
# Legend:
# [1] = target: recombinant soluble human FcRn with β2-microglobulin (sFcRn) (human) (UniProt P55899); assay: SPR; pH 7.4
# [2] = target: recombinant soluble human FcRn with β2-microglobulin (sFcRn) (human) (UniProt P55899); assay: SPR; pH 6.0
pKd [1],pKd [2],Substance
6.05,8.10,anti-biotin IgG1-MST-HN (from UniProt P01857)
–,7.23,anti-biotin IgG1-WT (from UniProt P01857)
